Measured values published in patent US20240052048A1.

How the values were obtained:
[1] = target: cyno-BCMA-Fc (cyno (monkey)); assay: ELISA (OD450), GSK2857916 titrated up to 10 µg/mL on Monkey BCMA-Fc; EC50 table in the figure
[2] = target: cyno-BCMA-His (cyno (monkey)); assay: ELISA (OD450), GSK2857916 titrated up to 10 µg/mL on Monkey BCMA-His; EC50 table in the figure
[3] = target: human-BAFF-Fc (human), Q9Y275; assay: ELISA (OD450), plate coated with BAFF 8 µg/ml, human BCMA titrated up to 10 µg/mL; EC50 table in the figure; conditions: remark: other sources report otherwise
Sequence of human-BAFF-Fc (human), Q9Y275 (Q9Y275 134-285 limits assumed): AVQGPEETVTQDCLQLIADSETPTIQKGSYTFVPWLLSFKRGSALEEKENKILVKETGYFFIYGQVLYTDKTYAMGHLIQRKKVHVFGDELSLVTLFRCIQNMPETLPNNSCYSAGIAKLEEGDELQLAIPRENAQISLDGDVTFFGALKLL

[4] = target: human-BAFF-Fc (human), Q9Y275; assay: ELISA (OD450), plate coated with BAFF 4 µg/ml, human BCMA titrated up to 10 µg/mL; EC50 table in the figure; conditions: remark: other sources report otherwise
[5] = target: human-BAFF-Fc (human), Q9Y275; assay: ELISA (OD450), plate coated with BAFF 2 µg/ml, human BCMA titrated up to 10 µg/mL; EC50 table in the figure; conditions: remark: other sources report otherwise
[6] = target: human-BAFF-Fc (human), Q9Y275; assay: ELISA (OD450), plate coated with BAFF 1 µg/ml, human BCMA titrated up to 10 µg/mL; EC50 table in the figure; conditions: remark: other sources report otherwise

B1: GSK2857916 (positive control antibody, not coupled to the toxin molecule) (antibody, V domains shown)
VH: QVQLVQSGAEVKKPGSSVKVSCKASGGTFSNYWMHWVRQAPGQGLEWMGATYRGHSDTYYNQKFKGRVTITADKSTSTAYMELSSLRSEDTAVYYCARGAIYDGYDVLDNWGQGTLVTVSS
VL: DIQMTQSPSSLSASVGDRVTITCSASQDISNYLNWYQQKPGKAPKLLIYYTSNLHSGVPSRFSGSGSGTDFTLTISSLQPEDFATYYCQQYRKLPWTFGQGTKLEIK
- EC50 [1]: 0.336 µg/mL
- EC50 [2]: 0.463 µg/mL

B2: human BCMA (recombinant antigen, tag not stated for the assay), Q02223 1-54 (receptor, UniProt Q02223 1-54, looked up)
chain: MLQMAGQCSQNEYFDSLLHACIPCQLRCSSNTPPLTCQRYCNASVTNSVKGTNA
- EC50 [3]: 0.697 µg/mL
- EC50 [4]: 0.559 µg/mL
- EC50 [5]: 0.553 µg/mL
- EC50 [6]: 0.586 µg/mL
